Assay results reported in patent US20260242478A1 (published 2026).
Where no end group is shown, it is not given here.

Tests used:
PSMA Fab (006 PSMA Fab) [1] = biological target: T1, PSMA Fab (006 PSMA Fab) (Fab biotinylated for capture on neutravidin plates (site not given)); assay: clonal phage ELISA; biotinylated PSMA Fab on neutravidin plate, blocking buffer alone; anti-M13-HRP detection;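 note: clonal phage applied as crude supernatants to wells preincubated with blocking buffer, binding read by ELISA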
T1 construct: also called Anti-PSMA Fab; anti-PSMA Fab

PSMA Fab (006 PSMA Fab) [2] = biological target: T1, PSMA Fab (006 PSMA Fab); assay: clonal phage ELISA; biotinylated PSMA Fab on neutravidin plate, wells pre-incubated with PSMA antigen as competitor; anti-M13-HRP detection
Procedure: (§1) Clonal phage were harvested as crude supernatants and screened via standard ELISAs. […] Prior to the addition of clonal phage. wells were incubated with blocking buffer and PSMA antigen or blocking buffer alone. Without washing or aspirating, clonal phage supernatants were then added to the wells and incubated for a short time. Wells were then washed followed by detection of bound phage using a horse radish conjugated anti-M13 antibody.

PSMA Fab [3] = biological target: T2, PSMA Fab (biotinylated (site not stated)); assay: clonal phage ELISA on PSMA Fab pre-incubated with PSMA antigen as competitor
T2 construct: Biotinylated PSMA Fab captured on neutravidin coated plates in the phage ELISA; also called Anti-PSMA Fab; 006 PSMA Fab

PSMA Fab [4] = biological target: T2, PSMA Fab; assay: clonal phage ELISA, biotinylated PSMA Fab on neutravidin plate, anti-M13 HRP detection;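 note: crude clonal phage supernatants added to wells pretreated with blocking buffer either with or without PSMA antigen, bound phage read after washing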
Procedure: as §1

PSMA Fab (006 PSMA Fab) [5] = biological target: T3, PSMA Fab (006 PSMA Fab) (biotinylated (site not stated)); assay: clonal phage ELISA on captured anti-PSMA Fab pre-incubated with PSMA antigen (competitor: PSMA)
T3 construct: That the same Fab was used in the panning ELISA is inferred; also called Anti-PSMA Fab; anti-PSMA Fab

PSMA Fab (006 PSMA Fab) [6] = biological target: T3, PSMA Fab (006 PSMA Fab); assay: clonal phage ELISA on biotinylated anti-PSMA Fab captured on neutravidin, anti-M13-HRP detection
Procedure: as §1

PSMA Fab [7] = biological target: T4, PSMA Fab; assay: clonal phage ELISA; biotinylated PSMA Fab on neutravidin plate, blocking buffer alone; anti-M13 HRP detection;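 note: crude clonal phage supernatants added without washing to wells pretreated with blocking buffer with or without PSMA antigen, short incubation, then washed before detecting bound phage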
T4 construct: also called Anti-PSMA Fab; 006 PSMA Fab
Procedure: as §1

PSMA Fab [8] = biological target: T4, PSMA Fab; assay: clonal phage ELISA; biotinylated PSMA Fab on neutravidin plate, pre-incubated with PSMA antigen as competitor; anti-M13 HRP detection
Procedure: as §1

Row | Binder | Phage binding ELISA signal, Anti-PSMA Fab (PSMA Fab (006 PSMA Fab) [1]) | Phage binding ELISA signal, Anti-PSMA Fab in presence of PSMA antigen (PSMA Fab (006 PSMA Fab) [2]) | phage binding ELISA signal in the presence of PSMA (PSMA Fab (006 PSMA Fab) [5]) | phage binding ELISA signal (PSMA Fab (006 PSMA Fab) [6]) | also measured
1 | VTMRCTPDWMCVGF (also called Peptide-180 library clone; not shown: pIII filament protein of the bacteriophage) [Phage-3454] | 1.74 | 0.0737 |  |  | 
2 | SDKFCVPEWMCEWI (tested as crude clonal phage supernatant) [Phage-3478] |  |  |  |  | Phage binding ELISA signal, Anti-PSMA Fab with PSMA antigen (PSMA Fab [3]): 0.0588; Phage binding ELISA signal, Anti-PSMA Fab (PSMA Fab [4]): 1.72
3 | SLPICKPEWMCVGL (Peptide-180 library clone, tested as clonal phage supernatant; not shown: fused to the pIII filament protein of the bacteriophage) [Phage-3429] |  |  | 0.0892 | 1.77 | 
4 | EAIRCVPVWMCQGF (tested as crude clonal phage supernatant) [Phage-3485] |  |  |  |  | Phage binding ELISA signal, Anti-PSMA Fab with PSMA antigen (PSMA Fab [3]): 0.0989; Phage binding ELISA signal, Anti-PSMA Fab (PSMA Fab [4]): 1.72
5 | VLRSCVPEWMCSGF (also called Peptide-180 library clone; not shown: pIII filament protein of the bacteriophage) [Phage-3462] | 1.74 | 0.075 |  |  | 
6 | SFLRCEPMWMCLGF (Peptide-180 library clone, tested as clonal phage supernatant; not shown: fused to the pIII filament protein of the bacteriophage) [Phage-3432] |  |  | 0.0816 | 1.77 | 
7 | VSPMCRPAWMCEGL (tested as crude clonal phage supernatant) [Phage-3476] |  |  |  |  | Phage binding ELISA signal, Anti-PSMA Fab with PSMA antigen (PSMA Fab [3]): 0.0909; Phage binding ELISA signal, Anti-PSMA Fab (PSMA Fab [4]): 1.73
8 | VERACRPVWMCQGF [Phage-3417] |  |  |  |  | Phage binding ELISA signal, Anti-PSMA Fab (PSMA Fab [7]): 1.78; Phage binding ELISA signal, Anti-PSMA Fab with PSMA antigen (PSMA Fab [8]): 0.0907
9 | TSLRCVPEWMCSGF (Peptide-180 library clone, tested as clonal phage supernatant; not shown: fused to the pIII filament protein of the bacteriophage) [Phage-3428] |  |  | 0.0814 | 1.77 | 
10 | NDVKCIPEWMCVGF (Peptide-180 library clone, tested as clonal phage supernatant; not shown: fused to the pIII filament protein of the bacteriophage) [Phage-3420] |  |  | 0.0849 | 1.78 | 
11 | METWCVPTWMCTGF [Phage-3415] |  |  |  |  | Phage binding ELISA signal, Anti-PSMA Fab (PSMA Fab [7]): 1.79; Phage binding ELISA signal, Anti-PSMA Fab with PSMA antigen (PSMA Fab [8]): 0.0748
12 | DTIACRPEWMCTGF (tested as crude clonal phage supernatant) [Phage-3481] |  |  |  |  | Phage binding ELISA signal, Anti-PSMA Fab with PSMA antigen (PSMA Fab [3]): 0.0607; Phage binding ELISA signal, Anti-PSMA Fab (PSMA Fab [4]): 1.72
13 | MLPYCVPQWMCMGF [Phage-3419] |  |  |  |  | Phage binding ELISA signal, Anti-PSMA Fab (PSMA Fab [7]): 1.78; Phage binding ELISA signal, Anti-PSMA Fab with PSMA antigen (PSMA Fab [8]): 0.147
14 | VEKMCRPLWMCHGF (also called Peptide-180 library clone; not shown: pIII filament protein of the bacteriophage) [Phage-3457] | 1.74 | 0.0944 |  |  | 
15 | MDARCVPSWMCIGV (tested as crude clonal phage supernatant) [Phage-3479] |  |  |  |  | Phage binding ELISA signal, Anti-PSMA Fab with PSMA antigen (PSMA Fab [3]): 0.48; Phage binding ELISA signal, Anti-PSMA Fab (PSMA Fab [4]): 1.72
16 | PLKLCIPEWMCVEL (also called Peptide-180 library clone; not shown: pIII filament protein of the bacteriophage) [Phage-3450] | 1.75 | 0.0747 |  |  | 
17 | LEIMCRPEWMCSGF (Peptide-180 library clone, tested as clonal phage supernatant; not shown: fused to the pIII filament protein of the bacteriophage) [Phage-3425] |  |  | 0.0888 | 1.77 | 
18 | FEFRCTPEWMCRGF (also called Peptide-180 library clone; not shown: pIII filament protein of the bacteriophage) [Phage-3453] | 1.74 | 0.0706 |  |  | 
19 | IEALCVPDWMCRGF (also called Peptide-180 library clone; not shown: pIII filament protein of the bacteriophage) [Phage-3455] | 1.74 | 0.0663 |  |  | 
20 | SSMLCIPTWMCGGF (Peptide-180 library clone, tested as clonal phage supernatant; not shown: fused to the pIII filament protein of the bacteriophage) [Phage-3427] |  |  | 0.0536 | 1.77 | 
21 | EFIKCEPKWMCQGF (tested as crude clonal phage supernatant) [Phage-3480] |  |  |  |  | Phage binding ELISA signal, Anti-PSMA Fab with PSMA antigen (PSMA Fab [3]): 0.0826; Phage binding ELISA signal, Anti-PSMA Fab (PSMA Fab [4]): 1.72
22 | LSTLCIPQWMCTGL (Peptide-180 library clone, tested as clonal phage supernatant; not shown: fused to the pIII filament protein of the bacteriophage) [Phage-3422] |  |  | 0.0813 | 1.78 | 

Row | Binder | Phage binding ELISA signal, Anti-PSMA Fab (PSMA Fab (006 PSMA Fab) [1]) | Phage binding ELISA signal, Anti-PSMA Fab in presence of PSMA antigen (PSMA Fab (006 PSMA Fab) [2]) | phage binding ELISA signal in the presence of PSMA (PSMA Fab (006 PSMA Fab) [5]) | phage binding ELISA signal (PSMA Fab (006 PSMA Fab) [6]) | also measured
23 | DTWICKPEWMCMGF [Phage-3416] |  |  |  |  | Phage binding ELISA signal, Anti-PSMA Fab (PSMA Fab [7]): 1.78; Phage binding ELISA signal, Anti-PSMA Fab with PSMA antigen (PSMA Fab [8]): 0.0802
24 | DFVRCVPDWMCQGF [Phage-3414] |  |  |  |  | Phage binding ELISA signal, Anti-PSMA Fab (PSMA Fab [7]): 1.79; Phage binding ELISA signal, Anti-PSMA Fab with PSMA antigen (PSMA Fab [8]): 0.0627
25 | IMPTCVPQWMCNGF [Phage-3418] |  |  |  |  | Phage binding ELISA signal, Anti-PSMA Fab (PSMA Fab [7]): 1.78; Phage binding ELISA signal, Anti-PSMA Fab with PSMA antigen (PSMA Fab [8]): 0.093
26 | MERFCIPSWMCEGL (also called Peptide-180 library clone; not shown: pIII filament protein of the bacteriophage) [Phage-3452] | 1.74 | 0.0682 |  |  | 
27 | IEPHCVPAWMCTGF (Peptide-180 library clone, tested as clonal phage supernatant; not shown: fused to the pIII filament protein of the bacteriophage) [Phage-3433] |  |  | 0.0805 | 1.76 | 
28 | EDILCKPVWMCIGF (Peptide-180 library clone, tested as clonal phage supernatant; not shown: fused to the pIII filament protein of the bacteriophage) [Phage-3431] |  |  | 0.06 | 1.77 | 
29 | YFQMCAPRWMCEGF (cysteine pairing not given here; also: fused to pIII of bacteriophage, Peptide-180 library clone, tested as clonal phage supernatant; not shown: fused to the pIII filament protein of the bacteriophage) [Phage-3423] |  |  | 0.0849 | 1.78 | 
30 | HIMQCKPAWMCSGL (also called Peptide-180 library clone; not shown: pIII filament protein of the bacteriophage) [Phage-3456] | 1.74 | 0.0654 |  |  | 
31 | TDPLCIPEWMCQGM (Peptide-180 library clone, tested as clonal phage supernatant; not shown: fused to the pIII filament protein of the bacteriophage) [Phage-3421] |  |  | 0.0726 | 1.78 | 
32 | IDQICKPAWMCSGF (Peptide-180 library clone, tested as clonal phage supernatant; not shown: fused to the pIII filament protein of the bacteriophage) [Phage-3424] |  |  | 0.0628 | 1.78 | 
33 | TELLCTPRWMCEGF (also called Peptide-180 library clone; not shown: pIII filament protein of the bacteriophage) [Phage-3461] | 1.74 | 0.163 |  |  | 
34 | AERMCVPSWMCQGL (tested as crude clonal phage supernatant) [Phage-3484] |  |  |  |  | Phage binding ELISA signal, Anti-PSMA Fab with PSMA antigen (PSMA Fab [3]): 0.0943; Phage binding ELISA signal, Anti-PSMA Fab (PSMA Fab [4]): 1.72
35 | VWKTCVPEWMCVGY (tested as crude clonal phage supernatant) [Phage-3477] |  |  |  |  | Phage binding ELISA signal, Anti-PSMA Fab with PSMA antigen (PSMA Fab [3]): 0.112; Phage binding ELISA signal, Anti-PSMA Fab (PSMA Fab [4]): 1.73
36 | VVAQCVPRWMCDGF (also called Peptide-180 library clone; not shown: pIII filament protein of the bacteriophage) [Phage-3458] | 1.74 | 0.103 |  |  | 
37 | TINICKPQWMCIGF (also called Peptide-180 library clone; not shown: pIII filament protein of the bacteriophage) [Phage-3451] | 1.74 | 0.0893 |  |  | 
38 | EDVRCVPAWMCNGF (cysteine pairing not given here; also: fused to pIII of bacteriophage, also called Peptide-180 library clone; not shown: pIII filament protein of the bacteriophage) [Phage-3449] | 1.75 | 0.0724 |  |  | 
39 | MTPRCIPSWMCFGM (Peptide-180 library clone, tested as clonal phage supernatant; not shown: fused to the pIII filament protein of the bacteriophage) [Phage-3426] |  |  | 0.086 | 1.77 | 
40 | VEKMCKPVWMCNGF (Peptide-180 library clone, tested as clonal phage supernatant; not shown: fused to the pIII filament protein of the bacteriophage) [Phage-3430] |  |  | 0.115 | 1.77 | 
41 | SPPLCVPVWMCHGF (also called Peptide-180 library clone; not shown: pIII filament protein of the bacteriophage) [Phage-3459] | 1.74 | 0.148 |  |  | 
42 | ITPACVPEWMCLGL (tested as crude clonal phage supernatant) [Phage-3483] |  |  |  |  | Phage binding ELISA signal, Anti-PSMA Fab with PSMA antigen (PSMA Fab [3]): 0.0774; Phage binding ELISA signal, Anti-PSMA Fab (PSMA Fab [4]): 1.72
43 | YFKHCVPQWMCEGF (tested as crude clonal phage supernatant) [Phage-3482] |  |  |  |  | Phage binding ELISA signal, Anti-PSMA Fab with PSMA antigen (PSMA Fab [3]): 0.146; Phage binding ELISA signal, Anti-PSMA Fab (PSMA Fab [4]): 1.72
44 | NAIMCRPAWMCSGF (also called Peptide-180 library clone; not shown: pIII filament protein of the bacteriophage) [Phage-3460] | 1.74 | 0.0847 |  |  | 
